B1: Untagged murine saposin A (SapA) [mouse] / His6-tagged murine β-galactocerebrosidase (GALC) [modified: glycosylated; glycosylated] [mouse] (parent complex)
chain 1: MGKSLPCDICKTVVTEAGNLLKDNATQEEILHYLEKTCEWIHDSSLSASCKEVVDSYLPVILDMIKGEMSNPGEVCSALNLCQSLQE
chain 2: YVLDDSDGLGREFDGIGAVSGGGATSRLLVNYPEPYRSEILDYLFKPNFGASLHILKVEIGGDGQTTDGTEPSHMHYELDENYFRGYEWWLMKEAKKRNPDIILMGLPWSFPGWLGKGFSWPYVNLQLTAYYVVRWILGAKHYHDLDIDYIGIWNERPFDANYIKELRKMLDYQGLQRVRIIASDNLWEPISSSLLLDQELWKVVDVIGAHYPGTYTVWNAKMSGKKLWSSEDFSTINSNVGAGCWSRILNQNYINGNMTSTIAWNLVASYYEELPYGRSGLMTAQEPWSGHYVVASPIWVSAHTTQFTQPGWYYLKTVGHLEKGGSYVALTDGLGNLTIIIETMSHQHSMCIRPYLPYYNVSHQLATFTLKGSLREIQELQVWYTKLGTPQQRLHFKQLDTLWLLDGSGSFTLELEEDEIFTLTTLTTGRKGSYPPPPSSKPFPTNYKDDFNVEYPLFSEAPNFADQTGVFEYYMNNEDREHRFTLRQVLNQRPITWAADASSTISVIGDHHWTNMTVQCDVYIETPRSGGVFIAGRVNKGGILIRSATGVFFWIFANGSYRVTADLGGWITYASGHADVTAKRWYTLTLGIKGYFAFGMLNGTILWKNVRVKYPGHGWAAIGTHTFEFAQFDNFRVEAAR

Variants of: B1
Assay: pull-down (immobilised GALC, Coomassie SDS-PAGE, quantified); in the presence of Tween-20; n = 3; read off a plot

ratio to parent | Variant
~0.06 | chain 1 MGKSLPCDICKTVVTEAGNLLKDNATQEEILHYLEKTCEWIHDSSLSASCKKVVDSYLPVILDMIKGEMSNPGEVCSALNLCQSLQE [chain 1 E52K]
~0.05 | chain 1 MGKSLPCDICKTVVTEAGNLLEDNATQEEILHYLEKTCEWIHDSSLSASCKEVVDSYLPVILDMIKGEMSNPGEVCSALNLCQSLQE [chain 1 K22E]
~0.13 | chain 1 MGKSLPCDICKTVVTEAGNLLKDNATQEEINHYLEKTCEWIHDSSLSASCKEVVDSYLPVILDMIKGEMSNPGEVCSALNLCQSLQE [chain 1 L31N]
~0.04 | chain 1 MGKSLPCDICKTVVTEAGNLLKDNATQEEIRHYLEKTCEWIHDSSLSASCKEVVDSYLPVILDMIKGEMSNPGEVCSALNLCQSLQE [chain 1 L31R]
~1.1 | chain 1 MGKSLPCDICKTVVTEAGNLLKDNATQEEILHYLEKTCEWIHDSSLSASCKEVVDSYLPVILDMIKGKMSNPGEVCSALNLCQSLQE [chain 1 E68K]
~0.08 | chain 1 MGKSLPCDICKTVVTEAGNLLKDNATKEEILHYLEKTCEWIHDSSLSASCKEVVDSYLPVILDMIKGEMSNPGEVCSALNLCQSLQE [chain 1 Q27K]
~0.12 | chain 1 MGKSLPCDICKTVVTEAGNLLKDNATQEEILHYLEKTCEWIHDSSLSASCKEVVKSYLPVILDMIKGEMSNPGEVCSALNLCQSLQE [chain 1 D55K]
~0.06 | chain 1 MGKSLPCDICKTVVTEAGNLLKDNATQKEILHYLEKTCEWIHDSSLSASCKEVVDSYLPVILDMIKGEMSNPGEVCSALNLCQSLQE [chain 1 E28K]
~0.21 | chain 1 MGKSLPCDICKTVVTEAGNLLKDNATQEEILHYLRKTCEWIHDSSLSASCKEVVDSYLPVILDMIKGEMSNPGEVCSALNLCQSLQE [chain 1 E35R]
~0.03 | chain 1 MGKSLPCDICKTVVTEAGNLLKDNATQEEILHYLEKTCEWIHDSSLSASCKEVVDSYLPVILKMIKGEMSNPGEVCSALNLCQSLQE [chain 1 D63K]
~0.81 | chain 1 MGKSLPCDICKTVVTEAGNLLKDNATQEEILHYLEKTCEFIHDSSLSASCKEVVDSYLPVILDMIKGEMSNPGEVCSALNLCQSLQE [chain 1 W40F]
~0.77 | chain 1 MGKSLPCDICKTVVTEAGNLLKDNATQEEILHYLEKTCESIHDSSLSASCKEVVDSYLPVILDMIKGEMSNPGEVCSALNLCQSLQE [chain 1 W40S]
~0.8 | chain 1 MGKSLPCDICKTVVTEAGNLLKDNATQEEILHYLEKTCEDIHDSSLSASCKEVVDSYLPVILDMIKGEMSNPGEVCSALNLCQSLQE [chain 1 W40D]
~0.77 | chain 1 MGKSLPCDICKTVVTEAGNLLKDNATQEEILHYLEKTCEWIHDSSLSASCKEVVDSYLPVILDMIEGEMSNPGEVCSALNLCQSLQE [chain 1 K66E]
